Experimental data: patent publication US20050048066A1, “Identification of potential immunodominant acetylcholine receptor alpha subunit” (priority 2000, published 2005)

How the values were obtained:
[1] = biological target: solubilized HLA-DR3 (a mix of DRB1*0301 and DRB3*0101) (human); experiment: DELFIA competitive binding vs biotinylated MBP 84-102, solubilized HLA-DR3, pH 5.5
[2] = biological target: solubilized HLA-DR3 (a mix of DRB1*0301 and DRB3*0101) (human); experiment: competition binding; set-up: unit not given beside the values
[3] = biological target: solubilized HLA-DR2 (a mix of DRB1*1501 and DRB5*0101) (human); experiment: DELFIA competitive binding vs biotinylated MBP 84-102, solubilized HLA-DR2, pH 5.5
[4] = biological target: solubilized HLA-DR3 (a mix of DRB1*0301 and DRB3*0101) (human); experiment: competition binding
[5] = biological target: solubilized HLA-DR2 (a mix of DRB1*1501 and DRB5*0101) (human); experiment: competition binding

Row | Substance | IC50 [1] | IC50 [2] | IC50 [3] | IC50 [4] | IC50 [5]
1 | AChRα peptide 7-22 (from UniProt P02708 27-42) | 6.15 µM | 6153 ? |  |  | 
2 | AChRα peptide 36-49 (from UniProt P02708 56-69) | 7.3 µM | 7299 ? | 11 µM |  | 
3 | AChRα peptide 113-126 (from UniProt P02708 133-146) |  |  |  | 73 µM | 
4 | AChRα peptide 145-163 (from UniProt P02708 165-183) |  | 2002 ? |  | 2 µM | 
5 | AChRα peptide 195-212 (from UniProt P02708 215-232) |  | 6036 ? |  | 6.04 µM | 36.8 µM
6 | AChRα peptide 204-217 (from UniProt P02708 224-237) | 71.3 µM |  |  |  | 
7 | AChRα peptide 310-327 (from UniProt P02708 330-347) |  |  |  |  | 4.19 µM
8 | AChRα peptide 419-437 (from UniProt P02708 439-457) |  |  |  | 48.9 µM | 
